Broadly, the EC50 is the midpoint of the concentration-response curve. Low readings indicate greater potency, high ones weaker potency. The Kd is the free concentration of one partner at which half of the binding sites on the other are occupied at equilibrium, for simple one-to-one binding. As a reminder, the koff is the rate constant with which the complex falls apart. Lower therefore signals slow dissociation. The term kon denotes the rate constant with which the complex forms. High values mean faster complex formation, low ones slower complex formation.

Results on 16 molecules are retold here after patent publication US20230122503A1 (Janssen / Centocor, published 2023).

Where a chain is given by its changes, count along the chain named.

The labels stand for the following.
B1: PSMB1156 conjugated to maleimide-PEG4-vcPAB-MMAF (antibody, human IgG1, lambda, V domains shown)
VH: EVQLVESGGGVVQPGRSLRLSCAASGFTFTSYGMHWVRQAPGKGLEWVAVISYDGSNKYYADSVKGRFTISRDNSKNTLYLQMNSLRAEDTAVYYCAREHYDSSGYYHGYYGMDVWGQGTTVTVSS
VL: not shown
modifications: maleimide-PEG4-vcPAB-MMAF and N-ethyl maleimide on reduced cysteines (sites not given)
B2: PSMB1183 conjugated to maleimide-PEG4-vcPAB-MMAF (antibody, human IgG1, lambda, V domains shown)
VH: QVQLQESGPGLVKSSETLSLTCTVSGGSISSYYWNWIRQPAGKGLEWIGRIYSSGNTDYNPSLKSRVTMSVDTSKNQFSLKLISVTAADTAVYYCARGRGANVGLFDYWGQGTLVTVSS
VL: QSALTQPPSVSGAPGQRVTISCTGSNSNIGANYDVHWYQHLPGTAPKLLIYGNINRPLGVPDRFSGSRSGTSASLAITGLQAEDEADYYCQSYDFSLSGSVFGVGTKLTVLG
modifications: maleimide-PEG4-vcPAB-MMAF and N-ethyl maleimide on reduced cysteines (sites not given)
B3: PSMB1154 conjugated to maleimide-PEG4-vcPAB-MMAF (antibody, human IgG1, lambda, V domains shown)
VH: EVQLVESGGGEVQPGRSLRLTCAVSGFTLSRYGMHWVRQAPGKGLEWAALISYDGSNRYYADSVKGRFTISRDNSKNTVFLQMNSLRAEDTAVYYCARERESSGWFEGYFDYWGQGTTVTVSS
VL: QLVLTQPPSVSVAPGQTARITCGGNNIGSKSVHWYQQKPGQAPVLVVYDNSDRPSGIPERFSGSNSGNTATLTISRVEVGDEADYYCQVWDSSSDHVVFGGGTKLTVLG
modifications: maleimide-PEG4-vcPAB-MMAF and N-ethyl maleimide on reduced cysteines (sites not given)
B4: PSMB1157 conjugated to maleimide-PEG4-vcPAB-MMAF (antibody, human IgG1, lambda, V domains shown)
VH: EVQLVESGGGVVQPGRSLRLSCAASVRTFSGYGMHWVRQVPGKGLEWVAVISYDGSNRYYADSVKGRFTISRDNSKNTLYLQMNSLRTEDTAVYYCARDGNWGSLDLYFDLWGRGTLVTVSS
VL: QSVLTQPPSVSGAPGQRVTISCTGSSSNIGADYDVHWYQQLPGTAPKLLIYVNNNRPSGVPDRFSGSRSGTSASLAITGLQADDEADYYCQSYDNTLSGVVFGGGTKLTVLG
modifications: maleimide-PEG4-vcPAB-MMAF and N-ethyl maleimide on reduced cysteines (sites not given)
B5: PSMB1156 conjugated to MC-GGFG-DX8951 (antibody, human IgG1, lambda, V domains shown)
VH: B1 VH
VL: not shown
modifications: MC-GGFG-DX8951 on reduced cysteines, DAR 8.0
B6: PSMB1183 conjugated to MC-GGFG-DX8951 (antibody, human IgG1, lambda, V domains shown)
VH: B2 VH
VL: B2 VL
modifications: MC-GGFG-DX8951 on reduced cysteines, DAR 8.0
B7: PSMB1154 conjugated to MC-GGFG-DX8951 (antibody, human IgG1, lambda, V domains shown)
VH: B3 VH
VL: B3 VL
modifications: MC-GGFG-DX8951 on reduced cysteines, DAR 8.0
B8: PSMB1157 conjugated to MC-GGFG-DX8951 (antibody, human IgG1, lambda, V domains shown)
VH: B4 VH
VL: B4 VL
modifications: MC-GGFG-DX8951 on reduced cysteines, DAR 8.0
B9: PSMB1195 (antibody, human IgG1, kappa, V domains shown)
VH: EVQLVESGGGLVKPGGSLRLSCAASGFTFSSYSLNWVRQAPGKGLEWVSSISSSSSYISYADAVKGRFTISRDNAKNSLYLQMNSLRAEDTAVYYCARDRGFLEDYYYYYGMDVWGQGTTVTVSS
VL: DIVMTQSPSSVSASVGDRVTITCRASQGISNWLAWYQQKPGKAPKLLIYVASSLQSGVPSRFSGSGSGTDFSLTISSLQPEDFATYYCQQAYSFPLTFGGGTKVEIKR
notes: huIgG1, kappa light chain
B10: PSMB1156 (antibody, human IgG1, lambda, V domains shown)
VH: B1 VH
VL: not shown
notes: huIgG1, lambda light chain
B11: PSMB1088 (antibody, human IgG1, kappa, V domains shown)
VH: EVQLVESGGGVVQPGRSLRLSCAASGFTFSSYDMHWVRQAPGKGLEWVTVISFDGSNKYYVDSVKGRFTISRDNSKNTLYLQMNSLRAEDTAVYYCARTYYDILTGYSHYSYGMDVWGQGTTVTVSS
VL: EIVMTQSPSSLSASVGDRVTITCRASQGISNYLAWYQQKPGKVPKLLIYATSTLQSGVPSRFSGSGSGTDFILTISSLQPEDVANYYCQKYNSAPFTFGPGTKVEIKR
notes: huIgG1, kappa light chain
B12: PSMB1113 (antibody, human IgG1, kappa, V domains shown)
VH: EVQLVESGGGLVKPGGSLRLSCAASGFTLSIYSMNWVRQAPGKGLEWVSSISSSSSYIFYADSVKGRFTISRDNAKNSLFLQMNSLRAEDTAVYYCARSSYGADYWGQGTLVTVSS
VL: B11 VL with G28D, S30T, Y32F, A50T, T51A, I72T, N85T, F96L, P100G, V104L
notes: huIgG1, kappa light chain
B13: PSMB1098 (antibody, human IgG1, kappa, V domains shown)
VH: QVQLVESGGGVVQPGRSLRLSCAASGFTFSTYGMHWVRQAPGKGLEWVAFISYDGSNKYYADSVKGRFTISRDNSKHTLYLQMNSLRAEDTAVYYCAGRDNLRFLEWFMDVWGQGTTVTVSS
VL: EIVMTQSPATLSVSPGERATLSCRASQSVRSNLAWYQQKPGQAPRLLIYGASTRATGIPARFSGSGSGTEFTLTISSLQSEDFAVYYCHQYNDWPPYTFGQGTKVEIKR
notes: huIgG1, kappa light chain
B14: PSMB1183 (antibody, human IgG1, lambda, V domains shown)
VH: B2 VH
VL: B2 VL
notes: huIgG1, lambda light chain
B15: PSMB1154 (antibody, human IgG1, lambda, V domains shown)
VH: B3 VH
VL: B3 VL
notes: huIgG1, lambda light chain
B16: PSMB1157 (antibody, human IgG1, lambda, V domains shown)
VH: B4 VH
VL: B4 VL
notes: huIgG1, lambda light chain

T1 sequence (Q04609 whole entry): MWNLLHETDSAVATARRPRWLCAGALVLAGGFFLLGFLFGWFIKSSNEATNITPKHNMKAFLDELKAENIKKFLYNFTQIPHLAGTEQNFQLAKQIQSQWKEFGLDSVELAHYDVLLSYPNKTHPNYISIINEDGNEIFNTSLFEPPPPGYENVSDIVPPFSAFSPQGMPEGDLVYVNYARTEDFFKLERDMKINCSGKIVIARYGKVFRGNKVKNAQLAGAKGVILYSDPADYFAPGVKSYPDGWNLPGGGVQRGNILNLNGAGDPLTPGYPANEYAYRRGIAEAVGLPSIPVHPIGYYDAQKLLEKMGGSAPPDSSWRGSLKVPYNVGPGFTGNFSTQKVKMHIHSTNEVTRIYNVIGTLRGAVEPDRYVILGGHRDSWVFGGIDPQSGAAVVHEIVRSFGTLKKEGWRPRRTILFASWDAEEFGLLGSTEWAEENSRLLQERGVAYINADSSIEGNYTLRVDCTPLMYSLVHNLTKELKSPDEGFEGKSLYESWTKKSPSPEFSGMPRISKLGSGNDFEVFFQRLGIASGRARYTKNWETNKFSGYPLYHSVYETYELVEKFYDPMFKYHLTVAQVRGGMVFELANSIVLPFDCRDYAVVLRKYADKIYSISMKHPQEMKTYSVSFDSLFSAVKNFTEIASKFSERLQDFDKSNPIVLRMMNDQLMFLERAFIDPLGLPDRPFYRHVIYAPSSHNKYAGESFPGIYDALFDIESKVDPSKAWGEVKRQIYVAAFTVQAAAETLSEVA

The first assay concerns the target T1, human prostate-specific membrane antigen (PSMA), full length, on cells (human, UniProt Q04609 1-750). Briefly: cell-based or functional assay.
B1: the “C4-2B IC50 (cytotoxicity, vcMMAF ADC, DAR 2.9, 72 h)” value was determined as 0.04 nM.

Turning to B2, the “C4-2B IC50 (cytotoxicity, vcMMAF ADC, DAR 3.6, 72 h)” value was found to be 0.03 nM.

B3: the “C4-2B IC50 (cytotoxicity, vcMMAF ADC, DAR 4, 72 h)” value was determined as 0.03 nM.

With B4, the “C4-2B IC50 (cytotoxicity, vcMMAF ADC, DAR 3.6, 72 h)” value was found to be 0.03 nM.

The next assay deals with T1, human prostate-specific membrane …. In words: cell-based or functional assay. This is another data set of the same source.
B5: the “IC50 (cytotoxicity on 22RV1 cells, DX8951 ADC, DAR 8, 6 d)” value was found to be 1.4 nM.

Turning to B6, the “IC50 (cytotoxicity on 22RV1 cells, DX8951 ADC, DAR 8, 6 d)” value turned out to be 0.7 nM.

On to B7, for which the “IC50 (cytotoxicity on 22RV1 cells, DX8951 ADC, DAR 8, 6 d)” value was found to be 0.8 nM.

With B8, the “IC50 (cytotoxicity on 22RV1 cells, DX8951 ADC, DAR 8, 6 d)” value amounted to 2.2 nM.

Another assay has the same target. In words: flow cytometry on C4-2B cells (high PSMA), anti-human AF647 detection, four-parameter fit. On the procedure:
The affinity of the purified antibodies was also determined on C4-2B, a cell line with high PSMA levels. Briefly, C4-2B cells were washed once with 1×PBS and incubated with 3 mls/T150 flask of cell dissociation buffer until detached, the cells were collected and strained through a […] sieve. Cells were resuspended at 0.5×10e6 cells/mL in staining buffer (BD #554657) and seeded at 25,000 cells/well in V bottom plate (Corning 3894). To each well, 50 μl of Ab 4-fold serially diluted in staining buffer from 120 nM (60 nM final) were added at 2× final concentration. Control mAbs were added at 2 μg/ml, 1 μg/ml final (controls were: —secondary only and isotype control). All primary antibodies were incubated with the cells for 60 min at 4° C. After the primary incubation, 100 μl staining buffer were added to all wells and the cells were washed by pelleting by centrifugation at 300×g 5 min and buffer removed by flicking the plate. Then cells were similarly washed again with 200 μl staining buffer. […] After 30 minutes incubation at 4° C., the cells were washed as described above with 150 ul staining buffer, followed by a final wash with 200 ul running buffer (Running buffer is staining buffer plus 1 mM EDTA and 0.1% pluronic acid). Cells were resuspended in 30 ul/well running buffer with 1:1000 Sytox Blue viability stain (Invitrogen #S34857) and stored at 4° C. until read on the flow cytometer. Plates were read on an IntelliCyt IQue 3 instrument. Briefly, cells were gated on live cells, then populations were gated on singlets. Antibody binding was assessed by AF647 fluorescence at 647 nm. Data was analyzed in GeneData Screener with signal/background AF647 fluorescence plotted against antibody concentration.
(In general: Flow cytometry measures light scatter and fluorescence of single cells or particles in a stream.)
B9 showed an EC50 of 13.8 nM. This counts as double-digit nanomolar.

B10 displayed an EC50 of 0.633 nM.

In turn, B11 came in with an EC50 of 12.4 nM.

The molecule B12 yielded an EC50 of 2.52 nM.

Molecule B13 showed an EC50 of 2.46 nM.

Consider B14, for which the EC50 amounted to 0.156 nM.

Turning to B15, the midpoint of the response, the EC50, lay at 0.306 nM.

With B16, the EC50 turned out to be 0.381 nM.

The target of a further assay is T2, PSMW39, human PSMA ECD (Lys44-Ala750), N-6xHis (human, UniProt Q04609 44-750).
T2 construct: Made in Expi-CHO cells; also called PSMW39.002; recombinant human ECD
T2 sequence (Q04609 other isoform, or with tags, fused parts or gaps): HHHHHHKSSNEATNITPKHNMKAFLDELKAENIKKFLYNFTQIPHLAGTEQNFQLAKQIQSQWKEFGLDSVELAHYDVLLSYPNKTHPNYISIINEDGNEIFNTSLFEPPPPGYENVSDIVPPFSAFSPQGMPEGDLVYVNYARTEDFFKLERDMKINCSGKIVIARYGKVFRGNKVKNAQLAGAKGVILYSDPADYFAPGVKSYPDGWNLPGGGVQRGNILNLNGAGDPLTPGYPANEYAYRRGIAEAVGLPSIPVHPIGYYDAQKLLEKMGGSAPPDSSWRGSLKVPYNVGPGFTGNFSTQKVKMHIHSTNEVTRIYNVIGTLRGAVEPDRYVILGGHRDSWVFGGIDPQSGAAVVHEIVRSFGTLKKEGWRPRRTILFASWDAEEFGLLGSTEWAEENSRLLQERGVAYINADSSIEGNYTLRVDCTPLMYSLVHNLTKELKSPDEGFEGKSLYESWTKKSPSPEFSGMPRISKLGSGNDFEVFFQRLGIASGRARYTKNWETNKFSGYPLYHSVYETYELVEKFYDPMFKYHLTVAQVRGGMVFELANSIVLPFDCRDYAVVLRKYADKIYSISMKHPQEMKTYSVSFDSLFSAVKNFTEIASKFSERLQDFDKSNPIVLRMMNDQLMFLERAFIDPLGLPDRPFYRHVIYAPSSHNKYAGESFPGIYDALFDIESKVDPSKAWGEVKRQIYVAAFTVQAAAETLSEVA
In words: SPR (Biacore 8K), antibody captured on goat anti-Fc C1 chip, PSMA ECD as analyte, 1:1 Langmuir fit. How it is done:
The binding affinity of purified anti-PSMA antibodies to the recombinant human ECD was determined by surface plasmon resonance (SPR) using a BIACORE 8K instrument. The antibodies were captured on a goat anti-Fc antibody-modified C1 chip and titrated with 3-fold serial dilutions of PSMA antigen spanning concentrations of 1 nM to 11.1 nM. The association and dissociation were monitored for 3 and 15 minutes, respectively, using a flow rate of 50 μL/min. Raw binding data was referenced by subtracting the analyte binding signals from blanks and analyzed using a 1:1 Langmuir binding model using the Biacore Insight evaluation software to obtain the kinetics which were used to calculate the binding affinity.
Background: SPR reads the build-up and loss of mass on a sensor chip optically.
B9 registered a Kd of 9.45 nM, a koff of 0.000101 s⁻¹ and an on-rate constant (kon) of 10700 M⁻¹ s⁻¹.

Consider B10, for which the Kd amounted to 0.548 nM, the koff amounted to 0.000168 s⁻¹ and the kon was found to be 306000 M⁻¹ s⁻¹.

As to B11, the dissociation constant (Kd) amounted to 0.97 nM, the koff stood at 2.85e-05 s⁻¹ and the on-rate constant (kon) came to 29400 M⁻¹ s⁻¹.

B12 came in with a dissociation constant Kd of 1.16 nM, a koff of 6.65e-05 s⁻¹ and a kon of 57300 M⁻¹ s⁻¹.

Molecule B13 showed a Kd of 0.54 nM, a koff of 2.85e-05 s⁻¹ and a kon of 52700 M⁻¹ s⁻¹.

With B14, the Kd was determined as 0.928 nM, the koff was 0.000401 s⁻¹ and the association rate constant (kon) was found to be 432000 M⁻¹ s⁻¹.

B15 yielded a Kd of 1.09 nM, a koff of 0.00019 s⁻¹ and a kon of 174000 M⁻¹ s⁻¹.

Turning to B16, the Kd stood at 1.42 nM, the koff turned out to be 0.000274 s⁻¹ and the kon is 194000 M⁻¹ s⁻¹.
